± gives the uncertainty stated by the source.
Assay: amyloid nucleation score (Sup35N fusion, yeast selection) (log enrichment); library NNK3; higher = more nucleation; inactive = no reads after selection
Method in brief: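 Nucleation score is defined as the DiMSum log enrichment of output over input reads, with centring on the mode score of non-aggregating sequences. A minimum of 100 input reads was required for each sequence. Reads came from Illumina sequencing of plasmid inserts from psi-negative yeast expressing Sup35N fused to peptides of 20 random codons, induced with 100 μM copper sulfate for 24 hours and grown 7 days at 30°C on medium lacking adenine and uracil.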

Q: For KDMIYSHDKLKFQKKNKHMQ, which amyloid nucleation score is on record?
A: Its amyloid nucleation score is “inactive”.

Q: Which amyloid nucleation score does the source give for RIETYCVRGILAIE here?
A: Its amyloid nucleation score is “inactive”.

Q: Which amyloid nucleation score does the source give for SYLSHNFNGECCTSLLMDNL here?
A: The amyloid nucleation score was “inactive”.

Q: Which amyloid nucleation score does the source give for WYADICCCQIFRCWKLDRWS here?
A: Its amyloid nucleation score is “inactive”.

Q: With SLNEHNAGGIVTLHWQSIES as the substance, how does the amyloid nucleation score read?
A: The amyloid nucleation score was “inactive”.

Q: For NGYFLSQGGLLSLIMHFKIV, which amyloid nucleation score is on record?
A: Its amyloid nucleation score is -0.041 ± 0.77.

Q: With KSCLCSSTKRKLNRLTYTDR as the substance, how does the amyloid nucleation score read?
A: The amyloid nucleation score was “inactive”.

Q: With QHALCSTAIRILLSV as the substance, how does the amyloid nucleation score read?
A: Its amyloid nucleation score is “inactive”.

Q: With LGCREDFCERIGCVLRVMLE as the substance, how does the amyloid nucleation score read?
A: The amyloid nucleation score was “inactive”.

Q: For RYRSVNVYWIAVLRTWSAVI, which amyloid nucleation score is on record?
A: The amyloid nucleation score was “inactive”.

Q: With VFVMPDDNVC as the substance, how does the amyloid nucleation score read?
A: The amyloid nucleation score was “inactive”.

Q: For YGYEHALQFIFYLFNHLSWS, which amyloid nucleation score is on record?
A: Its amyloid nucleation score is “inactive”.

Q: For RGILFLV, which amyloid nucleation score is on record?
A: Its amyloid nucleation score is “inactive”.

Q: Which amyloid nucleation score does the source give for IIYPAMTHFLSYMYRVNCVS here?
A: Its amyloid nucleation score is “inactive”.

Q: For NRSTLYSSLCGYRVRENISW, which amyloid nucleation score is on record?
A: The amyloid nucleation score was 1.4 ± 0.097.

Q: Which amyloid nucleation score does the source give for SSGVEAGVSRMMLQ here?
A: Its amyloid nucleation score is “inactive”.

Q: Which amyloid nucleation score does the source give for KGFNSALLMWVLYINKQ here?
A: Its amyloid nucleation score is “inactive”.

Q: For YKSRGMVYDYFGKMIYHLSG, which amyloid nucleation score is on record?
A: The amyloid nucleation score was 0.63 ± 0.13.

Q: With PYSKELVHVTSSSATFTRCE as the substance, how does the amyloid nucleation score read?
A: The amyloid nucleation score was “inactive”.

Q: Which amyloid nucleation score does the source give for SFGSFMSHDEFSNVHSVGFP here?
A: The amyloid nucleation score was “inactive”.

Q: For NIWESAVPWVTDALVYKNRV, which amyloid nucleation score is on record?
A: Its amyloid nucleation score is -0.323 ± 0.96.

Q: For AVVARGGVLVGTLCFLFWLS, which amyloid nucleation score is on record?
A: The amyloid nucleation score was “inactive”.

Q: With SDLYDVVEPVAMVTCDSKEK as the substance, how does the amyloid nucleation score read?
A: The amyloid nucleation score was “inactive”.

Q: Which amyloid nucleation score does the source give for TDHCMVGGMYLEPVTIFFEG here?
A: The amyloid nucleation score was “inactive”.

Q: Which amyloid nucleation score does the source give for EDMVARGSLSKGHWKDLAT here?
A: The amyloid nucleation score was “inactive”.

Q: With MTWGSNFSDNGYKLEIMCYQ as the substance, how does the amyloid nucleation score read?
A: The amyloid nucleation score was “inactive”.

Q: Which amyloid nucleation score does the source give for MDRYNEPLSNWTKSSEIR here?
A: The amyloid nucleation score was “inactive”.

Q: Which amyloid nucleation score does the source give for NRYHRIIRDAIRKDYTVCSL here?
A: Its amyloid nucleation score is “inactive”.

Q: With THSPKISRFLDNSRMRQFFT as the substance, how does the amyloid nucleation score read?
A: The amyloid nucleation score was “inactive”.

Q: For AWSWLRANSRTQFWSRGLKP, which amyloid nucleation score is on record?
A: Its amyloid nucleation score is “inactive”.

Q: For VYRGLQWECLDGIVAFRRER, which amyloid nucleation score is on record?
A: Its amyloid nucleation score is “inactive”.

Q: For WYGRLGWRLVRPLGRYFTRS, which amyloid nucleation score is on record?
A: Its amyloid nucleation score is “inactive”.

Q: For SDQFLIMEDSCSTPGRRSFK, which amyloid nucleation score is on record?
A: The amyloid nucleation score was 0.408 ± 0.29.

Q: With ERQNMSYMGHKKEYLNHYFW as the substance, how does the amyloid nucleation score read?
A: Its amyloid nucleation score is “inactive”.

Q: Which amyloid nucleation score does the source give for ELIDFTIGLL here?
A: Its amyloid nucleation score is “inactive”.

Q: Which amyloid nucleation score does the source give for GCNACVTSTCIRVVCGNLKC here?
A: The amyloid nucleation score was 0.715 ± 0.3.

Q: Which amyloid nucleation score does the source give for DYEHSGSCKIDFVTL here?
A: Its amyloid nucleation score is “inactive”.

Q: Which amyloid nucleation score does the source give for YVNVSACNNGMLLGWQVG here?
A: The amyloid nucleation score was “inactive”.

Q: For FRDIRFAQSMMLSRKIIALL, which amyloid nucleation score is on record?
A: Its amyloid nucleation score is “inactive”.

Q: With HYLWCVYII as the substance, how does the amyloid nucleation score read?
A: The amyloid nucleation score was “inactive”.

Q: Which amyloid nucleation score does the source give for NMMPREPDTFMGYSGRRLCV here?
A: The amyloid nucleation score was -0.284 ± 1.1.

Q: For WFAGGHGKESIINWHYCQYM, which amyloid nucleation score is on record?
A: The amyloid nucleation score was “inactive”.

Q: Which amyloid nucleation score does the source give for NPFLSCKNYGICSYVGTNVF here?
A: Its amyloid nucleation score is 1.09 ± 0.096.

Q: Which amyloid nucleation score does the source give for VLCLVAGDYMNELIGGKGKV here?
A: Its amyloid nucleation score is “inactive”.

Q: Which amyloid nucleation score does the source give for TGISSNHKFMESIDSYVGTP here?
A: Its amyloid nucleation score is “inactive”.

Q: For GMDSIWHFDCNLS, which amyloid nucleation score is on record?
A: Its amyloid nucleation score is 0.094 ± 0.81.

Q: For SCRCR, which amyloid nucleation score is on record?
A: Its amyloid nucleation score is “inactive”.

Q: With SLIWPSYDYLDNFLGYYSLK as the substance, how does the amyloid nucleation score read?
A: The amyloid nucleation score was “inactive”.

Q: For ENLSEVWLSYVDSLSIYVLS, which amyloid nucleation score is on record?
A: The amyloid nucleation score was “inactive”.

Q: For YRLLEQLTLSCWANRVLRLG, which amyloid nucleation score is on record?
A: The amyloid nucleation score was -0.077 ± 0.61.

Q: Which amyloid nucleation score does the source give for QGFFGDNNAV here?
A: Its amyloid nucleation score is “inactive”.

Q: With SSCRDVWWKVVVVPTFTGGV as the substance, how does the amyloid nucleation score read?
A: Its amyloid nucleation score is “inactive”.

Q: With QKVLLWTSGPSSSRHRTEEF as the substance, how does the amyloid nucleation score read?
A: The amyloid nucleation score was “inactive”.

Q: Which amyloid nucleation score does the source give for GVQAITGPLSVQDVYRWAKP here?
A: Its amyloid nucleation score is “inactive”.

Q: Which amyloid nucleation score does the source give for TVHSIDRVVIIHRLMND here?
A: Its amyloid nucleation score is 0.235 ± 0.35.

Q: With SAYWCIPIPNITIWFNFFLL as the substance, how does the amyloid nucleation score read?
A: Its amyloid nucleation score is 1.47 ± 0.11.

Q: Which amyloid nucleation score does the source give for SKSLMMDLCTYCHYLNVYRE here?
A: Its amyloid nucleation score is “inactive”.

Q: For AVRWQSGSTRFLSCWLWQKN, which amyloid nucleation score is on record?
A: The amyloid nucleation score was “inactive”.

Q: With TGLIWLCESNRMLTVGSSLR as the substance, how does the amyloid nucleation score read?
A: The amyloid nucleation score was “inactive”.

Q: Which amyloid nucleation score does the source give for RLWLVYAKPGTRRCSRRMGC here?
A: Its amyloid nucleation score is “inactive”.

Q: Which amyloid nucleation score does the source give for LVNMHLSLSYGDLSRRQFVN here?
A: Its amyloid nucleation score is “inactive”.

Q: Which amyloid nucleation score does the source give for PIYDRFTSKIACLNMMVDLR here?
A: The amyloid nucleation score was 0.101 ± 0.29.

Q: Which amyloid nucleation score does the source give for PNGHLLYMYFFMRDGSSDRG here?
A: The amyloid nucleation score was “inactive”.

Q: For NGLRRSVLGLRL, which amyloid nucleation score is on record?
A: Its amyloid nucleation score is “inactive”.

Q: For MVGAPDV, which amyloid nucleation score is on record?
A: The amyloid nucleation score was “inactive”.

Q: Which amyloid nucleation score does the source give for CVDCRGESAHLLIARWFMRR here?
A: The amyloid nucleation score was 0.387 ± 0.38.

Q: With SIFIFYRYVFWRFMCDAVFS as the substance, how does the amyloid nucleation score read?
A: The amyloid nucleation score was “inactive”.

Q: For THLRLIYITD, which amyloid nucleation score is on record?
A: The amyloid nucleation score was “inactive”.

Q: With QLCLKGSPIVVVRCLRHNKI as the substance, how does the amyloid nucleation score read?
A: Its amyloid nucleation score is “inactive”.

Q: For YEAFADRTPLVFAHSWSMLK, which amyloid nucleation score is on record?
A: The amyloid nucleation score was “inactive”.

Q: Which amyloid nucleation score does the source give for FFVKEFLVLDICGMTLPFDI here?
A: The amyloid nucleation score was “inactive”.

Q: Which amyloid nucleation score does the source give for RFYLDLEQQHLEIVGESR here?
A: The amyloid nucleation score was “inactive”.

Q: With SVFSFCLNYSYNCIDRCKFN as the substance, how does the amyloid nucleation score read?
A: Its amyloid nucleation score is “inactive”.

Q: Which amyloid nucleation score does the source give for VLYVTKGVIFRCGCYNVGED here?
A: Its amyloid nucleation score is 1.7 ± 0.11.

Q: Which amyloid nucleation score does the source give for FVSLSRNLNCTPRL here?
A: The amyloid nucleation score was “inactive”.

Q: For SDLASASFCGH, which amyloid nucleation score is on record?
A: The amyloid nucleation score was 0.676 ± 0.2.

Q: Which amyloid nucleation score does the source give for KSHWTTM here?
A: The amyloid nucleation score was 1.64 ± 0.11.

Q: For KTKVTALCNIKGNNGHFPKH, which amyloid nucleation score is on record?
A: Its amyloid nucleation score is “inactive”.
